Measured values from patent US20240252673A1, “ANTI-TISSUE FACTOR ANTIBODY-DRUG CONJUGATES AND THEIR USE IN THE TREATMENT OF CANCER” (priority 2017, published 2024).

Assays:
Type in all cases: in vivo, human
[1] = test system: patients with relapsed, recurrent and/or metastatic cervical cancer; test: Phase IIa single arm trial: safety and tolerability (CTCAE v4.03); settings: 2.0 mg/kg q3w
Experimental: A Phase IIa single arm, multicenter trial investigated the efficacy, safety and tolerability of 2.0 mg/kg tisotumab vedotin in patients with relapsed, recurrent and/or metastatic cervical cancer. A total of 34 patients (n=34) were enrolled and received at least 1 dose of tisotumab vedotin. Each eligible patient was assigned to receive an intravenous (IV) infusion dose of tisotumab vedotin at a concentration of 2.0 mg/kg on day 1 of a 21-day cycle (i.e., each treatment cycle was 3 weeks (q3w)).
(§1) Lyophilized vials containing 40 mg of tisotumab vedotin were stored in a refrigerator at 2° C. to 8° C. Tisotumab vedotin was reconstituted in 4 ml of water leading to a reconstituted solution comprising 10 mg/mL tisotumab vedotin, 30 mM histidine, 88 mM sucrose, and 165 mM D-mannitol. […] The reconstituted tisotumab vedotin was diluted into a 0.9% NaCl 100 mL infusion bag according to the dose calculated for the patient to receive 2.0 mg/kg tisotumab vedotin. Intravenous infusion was completed within 24 hours after the tisotumab vedotin vial had been reconstituted. A 0.2 μm in-line filter was used for the intravenous infusion. The entire 100 mL volume from the prepared infusion bag was administered. No dead volume was provided.
A primary objective of the study was to assess safety and tolerability of tisotumab vedotin. Adverse event (AE) severity was graded according to CTCAE version 4.03. A secondary objective was preliminary evaluation of anti-tumor activity durability as assessed according to RECIST version 1.1. Tumor evaluations were performed by CT scans every six weeks.

[2] = test system: subjects with locally advanced and/or metastatic cancer of various types; test: Phase I/II dose-escalation study: safety and tolerability, adverse events (CTCAE v4.03) occurring up to 30 days after treatment
Experimental: (§2) A first-in-human phase I/II dose-escalating study following a 3+3 dose-escalation design was conducted in order to test the safety of tisotumab vedotin in 27 subjects with locally advanced and/or metastatic cancer of various types including cervical cancer (FIG. 2). Tisotumab vedotin was administered by intravenous infusion at doses ranging from 0.3 mg/kg to 2.2 mg/kg on day 1 of a 21-day cycle for four cycles (i.e., each treatment cycle was 3 weeks). Patients with stable disease (SD) or better at the end of four cycles had the option to continue treatment with tisotumab vedotin for eight additional cycles (FIG. 2). Tumor evaluations were performed by CT scans every six weeks. In order to qualify for SD, results of the CT scan scheduled for week six needed to be SD or better. Two CT scans were performed outside the per-protocol defined window.
as §1, with “patient.” for “patient to receive 2.0 mg/kg tisotumab vedotin.”
(§3) A primary objective of the study was to assess the safety and tolerability in a mixed population of patients with specified solid tumors. Adverse event (AE) severity was graded according to Common Terminology Criteria for Adverse Events (CTCAE) version 4.03. Secondary objectives of the study included determining the pharmacokinetic (PK) profile of tisotumab vedotin and preliminary evaluation of anti-tumor activity as assessed according to Response Evaluation Criteria in Solid Tumors [RECIST] version 1.1. Dose-limiting toxicities (DLTs) were determined during the first cycle and were defined as grade≥3 events possibly related to tisotumab vedotin. […] Tumor biopsies were required at baseline for TF expression which was assessed by immunohistochemistry utilizing tisotumab. TF staining intensity was determined using the H-scoring system.
Inclusion criteria for eligible subjects included: patients with relapsed, advanced, and/or metastatic cancer who have failed available standard therapy; and measurable disease.
Exclusion criteria included known past or current coagulation defects; ongoing major bleeding; and presence of CTCAE grade≥2 peripheral neuropathy.

[3] = test system: locally advanced and/or metastatic cancer of various types including cervical cancer; test: Phase I/II dose-escalation study: anti-tumor activity per RECIST v1.1 (CT scans every six weeks)
Experimental: as §2, §3

[4] = Patient 2, cervical cancer, 1.2 mg/kg

With tisotumab vedotin the “grade 4 or grade 5 events” value ([1]; 34 patients) was “no grade 4 or grade 5 events”, the “patients withdrew from treatment due to AE” value ([1]; 34 patients) was 5 n and the “patients experienced conjunctivitis at grade≥3” value ([1]; after mitigation (n=19)) was 5%. The “patients experienced conjunctivitis of any grade” value ([1]; after mitigation (n=19)) was 32%, the “patients experienced conjunctivitis of any grade” value ([1]; prior to mitigation (n=15)) was 73% and the “safety profile, overall conclusion” value ([1]; cervical cancer cohort) was “manageable safety profile”. The “AE leading to discontinuation” value ([2]; 0.3 mg/kg (n = 3)) was 0 n, the “AE leading to discontinuation” value ([2]; 0.6 mg/kg (n = 3)) was 0 n and the “AE leading to discontinuation” value ([2]; 0.9 mg/kg (n = 3)) was 0 n. For the same substance, the “AE with outcome of death” value ([2]; 0.9 mg/kg (n = 3)) was 0 n, the “Serious AE” value ([2]; 0.9 mg/kg (n = 3)) was 0 n and the “AE leading to discontinuation” value ([2]; 1.2 mg/kg (n = 3)) was 0 n. The “AE with outcome of death” value ([2]; 1.2 mg/kg (n = 3)) was 0 n, the “AE leading to discontinuation” value ([2]; 1.5 mg/kg (n = 3)) was 0 n and the “AE with outcome of death” value ([2]; 1.5 mg/kg (n = 3)) was 0 n. The “AE with outcome of death” value ([2]; 1.8 mg/kg (n = 3)) was 0 n, the “AE leading to discontinuation” value ([2]; 2.0 mg/kg (n = 3)) was 0 n and the “AE with outcome of death” value ([2]; 2.0 mg/kg (n = 3)) was 0 n. The “AE with outcome of death” value ([2]; 2.2 mg/kg (n = 6)) was 0 n, the “DLTs (diabetes mellitus type 2, mucositis, neutropenic fever, all grade 3)” value ([2]; 2.2 mg/kg dose cohort, in three patients, first cycle) was “Three” and the “Maximum tolerated dose (MTD)” value ([2]; IV, day 1 of 21-day cycle) was 2.0 mg/kg. The tolerability [2, 4] was “well tolerated and no severe AEs were reported”, the “discontinued due to AE: grade 1 pneumonitis” value ([2]; all 27 patients) was 1 n and the “discontinued due to AE: grade 2 peripheral swelling and grade 3 pain in extremity” value ([2]; all 27 patients) was “one”. For the same substance, the “discontinued due to AE: grade 3 Guillain-Barre syndrome” value ([2]; all 27 patients) was 1 n, the “discontinued due to AE: grade 3 abdominal pain” value ([2]; all 27 patients) was 2 n and the “discontinued due to AE: grade 3 diabetes mellitus” value ([2]; all 27 patients) was 1 n. The “discontinued due to AE: grade 3 fatigue” value ([2]; all 27 patients) was 1 n, the “grade 4 events” value ([2]; all 27 patients) was “no grade 4 events” and the “grade≥3 treatment-related AE: abdominal pain” value ([2]; all 27 patients) was 3 n. For the same substance, the “grade≥3 treatment-related AE: anemia” value ([2]; all 27 patients) was 4 n, the “grade≥3 treatment-related AE: fatigue” value ([2]; all 27 patients) was 4 n and the “grade≥3 treatment-related AE: hyponatraemia” value ([2]; all 27 patients) was 3 n. The “patients experienced grade≥3 treatment-related AEs” value ([2]; all 27 patients) was 19 patients, the “treatment-related AE: anaemia” value ([2]; all 27 patients) was 41% and the “treatment-related AE: epitaxis” value ([2]; all 27 patients) was 48%. The “treatment-related AE: fatigue” value ([2]; all 27 patients) was 48%, the “changes in coagulation parameters” value ([2]; all doses) was “No significant changes” and the “patients withdrew from treatment due to AEs” value ([2]; all doses, 27 patients) was 15%. The “patients withdrew from treatment due to death” value ([2]; all doses, 27 patients) was 4%, the “patients withdrew from treatment due to dose-limiting toxicities (DLTs)” value ([2]; all doses, 27 patients) was 4% and the mean prothrombin time ([2]; by the end of the study (n=17), baseline 11.5 seconds (n=18)) was 11.7 s. The “mean activated partial thromboplastin time” value ([2]; by the end of the study (n=23), baseline 28.2 seconds (n=25)) was 27.1 s, the “Confirmed Response per RECIST v1.1: Complete response (CR)” value ([3]; 0.3 mg/kg (n = 3)) was 0 n and the “Confirmed Response per RECIST v1.1: Not evaluable” value ([3]; 0.3 mg/kg (n = 3)) was 0 n. For the same substance, the “Confirmed Response per RECIST v1.1: Partial response (PR)” value ([3]; 0.3 mg/kg (n = 3)) was 0 n, the “Confirmed Response per RECIST v1.1: Complete response (CR)” value ([3]; 0.6 mg/kg (n = 3)) was 0 n and the “Confirmed Response per RECIST v1.1: Partial response (PR)” value ([3]; 0.6 mg/kg (n = 3)) was 0 n. The “Confirmed Response per RECIST v1.1: Complete response (CR)” value ([3]; 0.9 mg/kg (n = 3)) was 0 n, the “Confirmed Response per RECIST v1.1: Not evaluable” value ([3]; 0.9 mg/kg (n = 3)) was 0 n and the “Confirmed Response per RECIST v1.1: Partial response (PR)” value ([3]; 0.9 mg/kg (n = 3)) was 0 n. For the same substance, the “Confirmed Response per RECIST v1.1: Complete response (CR)” value ([3]; 1.2 mg/kg (n = 3)) was 0 n, the “Confirmed Response per RECIST v1.1: Not evaluable” value ([3]; 1.2 mg/kg (n = 3)) was 0 n and the “Confirmed Response per RECIST v1.1: Complete response (CR)” value ([3]; 1.5 mg/kg (n = 3)) was 0 n. For the same substance, the “Confirmed Response per RECIST v1.1: Not evaluable” value ([3]; 1.5 mg/kg (n = 3)) was 0 n, the “Confirmed Response per RECIST v1.1: Partial response (PR)” value ([3]; 1.5 mg/kg (n = 3)) was 0 n and the “Confirmed Response per RECIST v1.1: Complete response (CR)” value ([3]; 1.8 mg/kg (n = 3)) was 0 n. For the same substance, the “Confirmed Response per RECIST v1.1: Not evaluable” value ([3]; 1.8 mg/kg (n = 3)) was 0 n, the “Confirmed Response per RECIST v1.1: Partial response (PR)” value ([3]; 1.8 mg/kg (n = 3)) was 0 n and the “Confirmed Response per RECIST v1.1: Progressive disease (PD)” value ([3]; 1.8 mg/kg (n = 3)) was 0 n. The “Confirmed Response per RECIST v1.1: Complete response (CR)” value ([3]; 2.0 mg/kg (n = 3)) was 0 n, the “Confirmed Response per RECIST v1.1: Not evaluable” value ([3]; 2.0 mg/kg (n = 3)) was 0 n and the “Confirmed Response per RECIST v1.1: Partial response (PR)” value ([3]; 2.0 mg/kg (n = 3)) was 0 n. The “Confirmed Response per RECIST v1.1: Complete response (CR)” value ([3]; 2.2 mg/kg (n = 6)) was 0 n, the “Confirmed Response per RECIST v1.1: Not evaluable” value ([3]; 2.2 mg/kg (n = 6)) was 0 n and the “Confirmed Response per RECIST v1.1: Partial response (PR)” value ([3]; 2.2 mg/kg (n = 6)) was 0 n. For the same substance, the “reduction in tumor size relative to baseline” value ([3]; Patient 1, cervical cancer, 2.2 mg/kg) was “about 20%”, the best response [3, 4] was “confirmed PR” and the “continued benefit, total duration” value [3, 4] was 15 months. The “reduction in tumor size relative to baseline (target lesion)” value ([3]; Patient 2, stage 4 cervical cancer, 3 prior lines, 1.2 mg/kg) was “about 51%”, the “Confirmed Response per RECIST v1.1: Complete response (CR)” value ([3]; all doses (n = 27)) was 0 n and the “disease control rate (DCR; PR+SD)” value ([3]; all doses, 26 patients evaluated) was 46%. For the same substance, the “patients withdrew from treatment due to disease progression” value ([3]; all doses, 27 patients) was 67% and the “disease control rate (DCR; PR+SD), patients” value ([3]; all doses, out of 26 patients) was 12 patients.
